In patent US20190345227A1:

Biological target: SpyCatcher-elastin-CarHC-elastin-SpyCatcher
Assay: cell-based or functional assay

mCherry
free mCherry detected in the supernatant of the AAA+BCB hydrogel, under both dark and bright conditions: 50%
